Data on 2 substances can be found in paper PMC10102533.

Assay [1] concerns the target mouse IgG2a-Fc (Fc only) (mouse). Nature of the assay: SDS-PAGE and Western blot with or without reducing agent. A general note: In western blotting, separated proteins are transferred to a membrane and probed.
Assay [2] concerns the target PGLYRP1-mIgG1-Fc (not stated | mouse). The assay is described as above.

Turning to “mouse IgG2a-Fc (Fc only) (domain or fragment)”, the stoichiometry N (usually a count of units in the complex or per binding partner) in assay [1] turned out to be 2.
As for PGLYRP1-mIgG1-Fc (Fc fusion), in assay [2], the stoichiometry N was found to be 2.
